Experimental data: patent publication US20130040894A1, “INHIBITION OR ACTIVATION OF SERINE/THREONINE ULK3 KINASE ACTIVITY” (TALLINN UNIVERSITY OF TECHNOLOGY, priority 2009, published 2013)

Key:
[1] = molecular target: T1, FLAG-tagged GLI1 (full length)
T1 chain: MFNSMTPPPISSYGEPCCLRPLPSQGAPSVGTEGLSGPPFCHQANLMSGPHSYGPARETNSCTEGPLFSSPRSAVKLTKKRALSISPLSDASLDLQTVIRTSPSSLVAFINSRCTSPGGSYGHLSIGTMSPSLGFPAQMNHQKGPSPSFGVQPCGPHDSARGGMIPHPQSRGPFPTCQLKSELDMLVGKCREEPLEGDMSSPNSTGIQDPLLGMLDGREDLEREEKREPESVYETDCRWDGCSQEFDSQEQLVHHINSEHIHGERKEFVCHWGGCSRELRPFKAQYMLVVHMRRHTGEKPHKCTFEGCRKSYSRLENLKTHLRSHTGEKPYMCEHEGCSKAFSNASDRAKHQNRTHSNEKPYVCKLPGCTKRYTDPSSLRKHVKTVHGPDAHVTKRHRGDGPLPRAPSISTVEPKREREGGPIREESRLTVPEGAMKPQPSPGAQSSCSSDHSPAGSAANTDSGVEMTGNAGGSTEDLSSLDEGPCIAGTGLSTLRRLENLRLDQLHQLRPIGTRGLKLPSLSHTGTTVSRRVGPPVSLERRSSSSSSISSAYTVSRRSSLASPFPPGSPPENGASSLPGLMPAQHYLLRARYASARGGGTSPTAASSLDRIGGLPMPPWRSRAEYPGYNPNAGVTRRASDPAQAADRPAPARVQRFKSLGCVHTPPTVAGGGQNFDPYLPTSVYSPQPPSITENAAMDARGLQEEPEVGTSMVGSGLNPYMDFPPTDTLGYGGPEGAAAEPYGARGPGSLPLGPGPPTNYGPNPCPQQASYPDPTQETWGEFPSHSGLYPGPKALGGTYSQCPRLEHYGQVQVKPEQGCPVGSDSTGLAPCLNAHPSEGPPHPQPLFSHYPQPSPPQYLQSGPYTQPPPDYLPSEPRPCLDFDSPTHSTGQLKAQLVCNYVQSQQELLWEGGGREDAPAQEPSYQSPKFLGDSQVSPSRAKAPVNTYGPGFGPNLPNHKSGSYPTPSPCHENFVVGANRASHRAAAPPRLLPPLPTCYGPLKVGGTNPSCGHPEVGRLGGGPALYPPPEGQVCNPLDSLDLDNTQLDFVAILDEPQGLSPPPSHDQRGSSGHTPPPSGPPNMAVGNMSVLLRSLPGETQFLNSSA

[2] = molecular target: T2, His-tagged GLI1 fragment, amino acids 1-433
T2 chain: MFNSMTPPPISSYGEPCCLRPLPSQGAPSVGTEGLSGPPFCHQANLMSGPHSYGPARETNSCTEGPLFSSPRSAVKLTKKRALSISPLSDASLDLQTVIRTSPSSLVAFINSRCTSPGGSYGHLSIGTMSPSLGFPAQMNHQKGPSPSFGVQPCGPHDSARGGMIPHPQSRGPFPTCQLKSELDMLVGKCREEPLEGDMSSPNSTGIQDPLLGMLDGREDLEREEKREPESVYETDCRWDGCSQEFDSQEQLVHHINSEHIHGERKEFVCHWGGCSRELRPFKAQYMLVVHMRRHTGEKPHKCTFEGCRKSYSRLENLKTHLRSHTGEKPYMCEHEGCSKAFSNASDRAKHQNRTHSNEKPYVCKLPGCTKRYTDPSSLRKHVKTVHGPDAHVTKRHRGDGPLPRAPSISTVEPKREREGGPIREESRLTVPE

FLAG-tagged GLI2, P10070 = molecular target: T3, FLAG-tagged GLI2, P10070
T3 chain: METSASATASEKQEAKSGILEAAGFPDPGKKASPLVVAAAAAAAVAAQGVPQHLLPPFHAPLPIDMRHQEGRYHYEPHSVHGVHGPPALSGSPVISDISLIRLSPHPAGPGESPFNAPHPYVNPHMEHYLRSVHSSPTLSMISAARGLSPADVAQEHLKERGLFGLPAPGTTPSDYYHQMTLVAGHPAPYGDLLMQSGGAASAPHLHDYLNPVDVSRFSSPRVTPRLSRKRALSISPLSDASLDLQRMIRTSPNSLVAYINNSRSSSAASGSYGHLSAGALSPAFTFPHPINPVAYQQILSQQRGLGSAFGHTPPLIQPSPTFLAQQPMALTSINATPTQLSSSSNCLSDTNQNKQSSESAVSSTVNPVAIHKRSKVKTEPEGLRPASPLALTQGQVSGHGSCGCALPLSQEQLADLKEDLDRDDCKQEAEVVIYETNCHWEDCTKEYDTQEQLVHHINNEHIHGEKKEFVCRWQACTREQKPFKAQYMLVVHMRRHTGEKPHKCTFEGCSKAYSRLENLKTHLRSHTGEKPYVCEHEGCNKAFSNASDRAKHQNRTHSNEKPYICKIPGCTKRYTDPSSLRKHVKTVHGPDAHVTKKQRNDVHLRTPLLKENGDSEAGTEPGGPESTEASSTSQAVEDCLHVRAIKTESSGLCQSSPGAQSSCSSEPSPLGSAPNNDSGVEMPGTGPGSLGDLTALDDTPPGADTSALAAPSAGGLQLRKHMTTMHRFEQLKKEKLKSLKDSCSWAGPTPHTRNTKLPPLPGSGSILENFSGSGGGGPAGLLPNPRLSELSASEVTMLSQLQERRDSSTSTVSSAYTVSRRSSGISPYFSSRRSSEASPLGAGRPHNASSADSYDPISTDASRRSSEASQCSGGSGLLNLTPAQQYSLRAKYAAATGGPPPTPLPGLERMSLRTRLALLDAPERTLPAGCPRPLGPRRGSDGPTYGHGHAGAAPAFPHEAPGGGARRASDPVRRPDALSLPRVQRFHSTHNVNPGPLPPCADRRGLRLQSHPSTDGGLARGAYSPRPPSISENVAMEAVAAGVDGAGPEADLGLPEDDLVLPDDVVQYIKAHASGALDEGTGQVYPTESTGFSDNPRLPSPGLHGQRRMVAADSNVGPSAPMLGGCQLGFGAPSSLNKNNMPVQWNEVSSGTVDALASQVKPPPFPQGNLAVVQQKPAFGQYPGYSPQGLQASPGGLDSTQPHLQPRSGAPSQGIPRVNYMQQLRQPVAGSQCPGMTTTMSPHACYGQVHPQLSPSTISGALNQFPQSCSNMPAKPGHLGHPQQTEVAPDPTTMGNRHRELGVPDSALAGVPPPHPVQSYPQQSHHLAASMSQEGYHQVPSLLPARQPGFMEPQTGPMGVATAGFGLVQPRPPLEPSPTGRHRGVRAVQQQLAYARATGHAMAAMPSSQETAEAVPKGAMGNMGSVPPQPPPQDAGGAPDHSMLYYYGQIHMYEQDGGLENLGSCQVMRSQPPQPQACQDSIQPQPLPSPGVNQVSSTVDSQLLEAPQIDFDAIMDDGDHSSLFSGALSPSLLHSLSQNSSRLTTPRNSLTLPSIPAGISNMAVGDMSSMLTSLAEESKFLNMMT

B1: FLAG-tagged wild-type ULK3 (human serine/threonine kinase ULK3) (protein)
chain: MAGPGWGPPRLDGFILTERLGSGTYATVYKAYAKKDTREVVAIKCVAKKSLNKASVENLLTEIEILKGIRHPHIVQLKDFQWDSDNIYLIMEFCAGGDLSRFIHTRRILPEKVARVFMQQLASALQFLHERNISHLDLKPQNILLSSLEKPHLKLADFGFAQHMSPWDEKHVLRGSPLYMAPEMVCQRQYDARVDLWSMGVILYEALFGQPPFASRSFSELEEKIRSNRVIELPLRPLLSRDCRDLLQRLLERDPSRRISFQDFFAHPWVDLEHMPSGESLGRATALVVQAVKKDQEGDSAAALSLYCKALDFFVPALHYEVDAQRKEAIKAKVGQYVSRAEELKAIVSSSNQALLRQGTSARDLLREMARDKPRLLAALEVASAAMAKEEAAGGEQDALDLYQHSLGELLLLLAAEPPGRRRELLHTEVQNLMARAEYLKEQVKMRESRWEADTLDKEGLSESVRSSCTLQ
[1]
  in vitro kinase assay, phosphorylation signal (32P autoradiography): GLI1 and GLI3 were also phosphorylated by ULK3, but with significantly lower intensity as compared to GLI2
[2]
  in vitro kinase assay, phosphorylation of a His-tagged GLI1 fragment: Two of them-GLI1(1-433) and GLI1(726-1106)-were phosphorylated by ULK3
FLAG-tagged GLI2, P10070
  in vitro kinase assay, phosphorylation signal (32P autoradiography): The strongest phosphorylation signal was detected in the case of GLI2
